# In the domain aggregation screens of Martell et al. (2025):
# Test: soluble fraction after stress (log2 fold change); higher = more stays soluble; pooled small domains, quantitative proteomics
# Details: stress: pH 4
# Method in brief: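 Aggregation propensity is read out as the fold change in how much of each domain remains soluble after acid stress. The custom small-domain libraries were pooled, held at pH 4 and analysed with high-throughput quantitative proteomics. On the log2 scale used, higher values mean more of the domain stayed soluble.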
row,Sequence,soluble fraction (log2)
1,HMPEMAIRTLRLRNQRGAAVAAEWSRITASLLELRQVEFVNPVDQLIVLKGPEPWAGVAEELVRQLDV,-1.02
2,HMIPNEKEAARWDALTAEHTAKLNALEGDALDKVGSHEDVSIKRAGVGDAAFREKILSRTHPDDLERALST,0.3
3,HMAASTPGTVTGSVVNVRPDPSTNNDRIGVIYQGTKVEILAQVGEWYNIQFGPVSGWVHKDYISTGA,-0.161
4,HMIAVLKQGVSKQQVENLITWFRSRGLDVHISEGKFQTIIGLIGDTSKVDIDLLNGLEIIESVKRI,-0.832
5,HMKDYQGNILIQSEGDRIDKFLFKYFNSFSRTKIKNHIINGNILVNDKNTIPAYVLKINDKISYDLSTSVK,-0.877
6,HMTLVSALDQKTKDSAYYRGTYLAGKISAGKMTKQEAVADIMKNYDGNTAAMKVAAEKAGVSDLLSQTVL,0.0773
7,HMFMNFAEHLMALRKQRGWSQEELGSQIGVTRQTVSKWEMGQSTPELEKLVELSRLFGMSIDQLVGL,-0.00635
8,HMLMLTPGQIAQTLDVSTATVRRWSARYARHLSPNTPGKKRSYTVDDLAVLTRVRDLSATGTPLAQIDQAL,0.151
9,HMKNLSQAEFMYLFKILAFGSTDPDNHPEMAATGMEIAKMLQGLLLSGNVLADILRKNQNVQFWL,-0.0785
10,HMRESPYRRVAKFLLLIGTAEAAKIVSRLDQDQVEKVMLELSGIRSVPRDEATVILAEFESLLQQAR,-1.2
11,HMRKATEVPFTAFKDSIENSHGKLSKAGLARHLADEYGMSQRNMERRINNLIDNKTIKYGNEGGLVWIG,0.22
12,HMIAALEGKQAMVLDQVSLHHGQVKLGGEVWTARPLNDQDVYEPGDRVTVMRIDGATAVVWRN,-0.0548
13,HMSSTAIQAMIRRLIDGEDPRKPLSDARLAETLKASGVPVARRTVAKYRESMSIPSSQDRLRI,0.0607
14,HMLSPAQSLLLRTAARRPDGRVIPPDTLRGGARVKVLTSLLQRGWIEPVDGGHVLTDAGYAAIG,≥ 0.43
15,HMQQIAVDLSEFKPRLMRDMSSMLAGLYTHDLDLSSLDFSKVANFTFMFRGAIITGTLKMPKI,0.109
16,HMKLVESALSILEEAVDRDFHGNLGDAARYFDIPYQTIYSWLKSRKRVPSLRALEPVLEKLGVSFTT,-0.479
17,HMRWSDQKEIVTLSLDHVLVEKGRKTKEYSWREFRTFTAFEIKKSSKDQINLGFKSKGNTVIIGNF,-0.438
18,HMNISLGALVTITDQKGRSHTVTLESGKQFFTNHGSINHDEIIKAGEGGVVASSSGMLYTIFTP,-0.551
19,HMYEHLKALRESLGMTQAEFGESVGVAKSTYNNYEIGARDPKSDFWIAVAQRYGVTIDYLMGFSDDPKKT,0.253
20,HMKIHNSIREITDFDRKQNSNIPSDAKYRIVFYTPQGNKTIIPEELQGLQYYRSKELAEIALNKKLNSN,0.0952
21,HMAGPRRRLLDAAIDRAAERGLGDLSLRALAEELGTSHRMLSHHFGSKDGLWLAIVEEVERRQ,-0.661
22,HMDPTIRRGELIDAASRLFLSKGYAATSVRDILDEVGNRTASPSVFYYYFKSKEEIYQAVLRRHSE,-0.485
23,HMGTSFKITFYKDAFQVDDGPIRMLNDPANQKFVDEVSQGYAPKELIGQGGKAPEIDIIDKRSENAPT,-0.0971
24,HMIDVNLVQRGKTLHLRRRVPMRYSSVERREYVSISLKTDSEAEARRKAGAAWDQMIAAWEARLA,-0.12
25,HMIITTPYKVTASAINIRSGRGTSYSIIGTVSKGQTVDVYNNSLSKGWVKVKFSGSVGYAYAKYLEK,-0.116
26,HMETPLSAADFKIVFGEEYEIGTDANGLPKMGSRINRQLQNRFLTWASVNKRKATMSAYQDWVASDPAAQ,-0.693
27,HMSTFTPYLVKVTTSVLNIRKGAGTNYGTNGSIRDMGTYTIVAEADGQGASKWGKLKSGAGWISLDYTKK,0.184
28,HMTVVLPGESLTVNIIQEGKELGQGVGYLDDGTMVVIEDGRRYIDQTIEVTVTRVLQTVAGRMIFAQLT,-0.886

row,Sequence,soluble fraction (log2)
1,HMGIKLSDRQMQIVEIVKSQQPITSEQVAERLNLTRAALRSDLSILTMAGILEARPKVGYSLTGR,0.14
2,HMDFSERLARAMSLAGYTQGRLAKEVGMAQSSVNKLLNGANGSRKTVEIASVLGVRPEWLSTGAGEML,0.0512
3,HMDKRYYYRILGLVGEPTRDQIEAAYETRIAKLRSSDYGDDPLYARRKISEVTMAYKVLTGS,0.139
4,HMTMKQVFIETDANVNQKIMLNEKEAHHLFDVLRTSDKETIRVVTNTSQVFLARVQQKPYIYLFDKMTVE,-1.76
5,HMKTLPADPTVKNFSYTVVDGEIYYRENSIMTQIELSDNAKGRVAGMVELRQIVNELIDQQLND,-1.52
6,HMAPRQDIAYYTVKPGDTVLAIAEKFGLQPETLMWSNSIIEQNPDRLSIGDELRILPVDGVLHVVK,-0.666
7,HMSENLESEFFGIVVITQTLLQKELRDKPMTVELIRKTVEDVMSKHYSDSSVDKAKVEEELIRRFSTW,-1.75
8,HMEGIAYDINTAPEHIDLKAEDMMATFNIGKTALWRWVKQKILPPPYEYRSQAAHWTIGQIRDWKTA,-0.417
9,HMAFDGIVLKNITNALKELINGKINKIQQSSKDNLTLSIYNQKSYNLYIDISANNYRVNLTTHSE,0.22
10,HMLSTQEYIKKNIENGSWKVGEKIPSENNLTEILGVSRASIRVAIQQFIALDVLNSIHGKGTFVKTNNIMG,0.207
11,HMDFGMPEELQKKLDKMPALKAAFEALTPGRQRGYIFYFSQPKQSKTRELRIEKSIEQIMNGKGLND,0.199
12,HMHAGQIISQKIKESGISISHVAKHLKVQRATLYNLFEREVWPAHRLRTIEALLHIDLSDLYP,-1.52
13,HMGVGITAPLAGNIFKIVVQPGDVVASGDVVLVLEAMKMETEIRAASGGTVSQVLVREGDAVDAGHTLITL,-1.49
14,HMPKHDWDAFAGAIARRVHDHGMPVSQGELVRDMMDWFAGRKDFPPPDERTVRRKVSAIWRELNG,-0.292
15,HMSVTYRLLITSSPGQAEVFLDGKRVGITPFSARLAAGWYQVRVSKEGYNLWEQHVQLREDQRLTATLT,0.229
16,HMILQTLSERVTETLRDWILHGHFKPGDKIEEVPIAERMGVSRTPVRAAFATLTNEGLIDHQPNRGYQVRV,0.201
17,HMDVIDDAQAMEIALEDAGLSMDDLDRYELELHTKRSELVYSIELKSGTEEYEYDLRAADGTILKRDTDF,-0.799
18,HMKEAITVIGGKNNITFDASAQAEIGIYSMDGVQIQKKTISDNERIDLPAGMYVVTVKTGQANVSKVVVV,-0.145
19,HMDFTISDADFHRLVQFIQQNYGVALSKKRQLISSRLSHSLRELGYKDFRTFLEHLFSTRDPADLELVLNK,-0.399
20,HMQPDDELVRLLLIKIFNDKQLKVNPAVINYLLRRIDRSFESINNFVKKIDEFSLEKGRKITVNLVSGFF,-1.43
21,HMDIGKNIQTIRYANKLTQDQVIAKLNLMGISMSKSTYAKLETNRMNIKVSELVALAKIFHTDINAF,-0.274
22,HMPDPHSEARNIVLNQLNFMPRSRKELETALAKRNIEADVAKIVLDRFEEIGMVDDAAYAEL,-1.2
23,HMPVFSLTPRELEILEWMSTPNTYRQIAAQLSVSEETVRSHAKNILEKMRQPNRAQAVLAAVKMGLIKL,-0.772
24,HMRDGYEKPTEVGEGGRNPAMLSYIGHLRAKGHLSEEDIRSMAHGFNATTFDPPLDRDEVDGLVSRY,≥ 0.43
25,HMNPYLWQRVRLLFSNVGVINNSATVDLVFSAPKGVLTEDLANNFSAALVKKGKEELGLDDIKITISVIPN,-2.21
26,HMVARPVLQIGSTGADVTAIQARLGVSQTGYFGVLTAAAVTNFQRSNGIAASGKVGATTWAKLMQSA,0.316
27,HMKETLSDTVSRKLEDMITTQMKAGNRLPTEMVLAEMYSVGRSTIRESLKALSSKGLIVRKKDGTFVSDRV,0.22
